For test [1], the target named is IQGAP1, endogenous, lung tissues of mice in the LLC/luc metastatic lung cancer model (mouse, UniProt Q9JKF1 2-1657). The test is described as follows: in situ PLA, lung tissues of the LLC/luc mouse model (FIG. 16H, upper panel).
The target in test [2] is T1, AhR, endogenous, human peripheral blood T cells (SLE and RA patients) (human, UniProt P35869 11-848, limits assumed).
T1 sequence (looked up): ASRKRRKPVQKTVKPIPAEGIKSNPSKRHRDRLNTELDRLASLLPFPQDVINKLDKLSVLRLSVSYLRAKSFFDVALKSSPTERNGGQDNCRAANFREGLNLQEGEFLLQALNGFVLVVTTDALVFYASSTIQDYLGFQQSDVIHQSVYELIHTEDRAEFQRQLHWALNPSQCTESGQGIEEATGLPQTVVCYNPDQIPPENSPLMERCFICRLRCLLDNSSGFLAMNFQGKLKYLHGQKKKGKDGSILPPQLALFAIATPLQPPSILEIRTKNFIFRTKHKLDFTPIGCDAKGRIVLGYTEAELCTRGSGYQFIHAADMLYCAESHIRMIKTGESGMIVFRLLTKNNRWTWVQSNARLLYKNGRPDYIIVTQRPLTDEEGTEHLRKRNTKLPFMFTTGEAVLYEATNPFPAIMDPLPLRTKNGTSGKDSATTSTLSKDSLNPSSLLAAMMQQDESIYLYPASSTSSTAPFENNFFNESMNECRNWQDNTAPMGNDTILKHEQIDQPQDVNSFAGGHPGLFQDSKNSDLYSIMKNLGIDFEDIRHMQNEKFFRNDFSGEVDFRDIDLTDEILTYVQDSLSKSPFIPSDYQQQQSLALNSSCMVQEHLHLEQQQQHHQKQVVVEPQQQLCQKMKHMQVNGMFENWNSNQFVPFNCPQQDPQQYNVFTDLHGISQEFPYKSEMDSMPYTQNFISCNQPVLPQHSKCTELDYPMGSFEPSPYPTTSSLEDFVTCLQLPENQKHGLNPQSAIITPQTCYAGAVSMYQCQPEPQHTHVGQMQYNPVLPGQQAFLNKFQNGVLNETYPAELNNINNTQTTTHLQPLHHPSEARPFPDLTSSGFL
The test is described as follows: in situ PLA, human peripheral blood T cells (FIG. 8C).

Test [3] concerns the target IQGAP1, endogenous, human NSCLC tissues (human, UniProt P46940 2-1657). The test is described as follows: in situ PLA with probes for GLK and IQGAP1, human NSCLC tissue sections (FIGS. 21A-B). The source says: These tissues were subjected to in situ proximity ligation assay (PLA) with a combination of paired PLA probes corresponding to GLK and IQGAP1. […] The few PLA signals in the normal adjacent tissues of NSCLC patients may be metastatic cancer cells migrating from original lesion. […] Next, we studied whether the GLK−IQGAP1 complex could act as a potential prognostic biomarker for NSCLCs. NSCLC (squamous cell carcinoma and adenocarcinoma) patients, whose survival data were available, were divided into four PLA-signal subgroups after cluster analyses. The two subgroups with highest PLA signals contained only one and two patients, respectively, thus, these two subgroups were excluded from further analysis. The remaining two subgroups (n=63) were subjected to Kaplan-Meier survival analysis using the survival data (available from the provider). […] The higher P value (P=0.069) may be due to the exclusion of three data with highest PLA signals. Nevertheless, NSCLC patients with more GLK−IQGAP1 complexes have a lower survival rate than that of the patients with less GLK−IQGAP1 complexes. Because 40% to 60% of NSCLC patients the of cancer recurrence after cancer resection, we studied whether the GLK−IQGAP1 complex is associated with NSCLC metastasis. […]

Test [4] deals with T2, GLK (MAP4K3) (transfected; construct of the ALPHA assay with AhR not stated) (UniProt Q8IVH8 1-894, limits assumed).
T2 construct: Expression plasmid 'reported previously'
T2 sequence (looked up): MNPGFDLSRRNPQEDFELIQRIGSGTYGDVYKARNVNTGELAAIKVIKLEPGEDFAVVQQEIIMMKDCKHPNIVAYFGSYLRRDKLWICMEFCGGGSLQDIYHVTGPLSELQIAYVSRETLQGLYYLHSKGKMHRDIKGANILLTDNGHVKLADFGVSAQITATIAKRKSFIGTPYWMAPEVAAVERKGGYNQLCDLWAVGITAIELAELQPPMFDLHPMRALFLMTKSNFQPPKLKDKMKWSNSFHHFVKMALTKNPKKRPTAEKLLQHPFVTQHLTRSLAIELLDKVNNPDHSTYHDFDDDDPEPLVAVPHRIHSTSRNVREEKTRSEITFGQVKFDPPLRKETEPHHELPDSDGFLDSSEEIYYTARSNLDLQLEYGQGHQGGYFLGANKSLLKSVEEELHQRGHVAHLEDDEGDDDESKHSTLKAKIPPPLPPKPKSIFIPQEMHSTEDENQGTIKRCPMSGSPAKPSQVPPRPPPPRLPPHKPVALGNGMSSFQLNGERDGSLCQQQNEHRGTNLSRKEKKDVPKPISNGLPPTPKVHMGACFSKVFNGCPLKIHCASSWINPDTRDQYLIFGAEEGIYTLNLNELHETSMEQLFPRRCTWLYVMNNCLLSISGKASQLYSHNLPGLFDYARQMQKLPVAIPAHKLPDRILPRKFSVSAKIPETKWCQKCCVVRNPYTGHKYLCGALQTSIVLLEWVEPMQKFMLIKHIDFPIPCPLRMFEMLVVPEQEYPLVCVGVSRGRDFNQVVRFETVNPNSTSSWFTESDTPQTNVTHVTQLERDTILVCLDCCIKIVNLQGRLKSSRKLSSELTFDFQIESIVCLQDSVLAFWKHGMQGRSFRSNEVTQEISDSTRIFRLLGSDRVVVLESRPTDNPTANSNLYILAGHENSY
The test is described as follows: ALPHA protein-protein interaction assay.

Here are results for four molecules from patent US20200057047A1 (NATIONAL HEALTH RESEARCH INSTITUTES, published 2020).

Sequence of IQGAP1, endogenous, lung tissues of mice in the LLC/luc metastatic lung cancer model (Q9JKF1 2-1657 limits assumed): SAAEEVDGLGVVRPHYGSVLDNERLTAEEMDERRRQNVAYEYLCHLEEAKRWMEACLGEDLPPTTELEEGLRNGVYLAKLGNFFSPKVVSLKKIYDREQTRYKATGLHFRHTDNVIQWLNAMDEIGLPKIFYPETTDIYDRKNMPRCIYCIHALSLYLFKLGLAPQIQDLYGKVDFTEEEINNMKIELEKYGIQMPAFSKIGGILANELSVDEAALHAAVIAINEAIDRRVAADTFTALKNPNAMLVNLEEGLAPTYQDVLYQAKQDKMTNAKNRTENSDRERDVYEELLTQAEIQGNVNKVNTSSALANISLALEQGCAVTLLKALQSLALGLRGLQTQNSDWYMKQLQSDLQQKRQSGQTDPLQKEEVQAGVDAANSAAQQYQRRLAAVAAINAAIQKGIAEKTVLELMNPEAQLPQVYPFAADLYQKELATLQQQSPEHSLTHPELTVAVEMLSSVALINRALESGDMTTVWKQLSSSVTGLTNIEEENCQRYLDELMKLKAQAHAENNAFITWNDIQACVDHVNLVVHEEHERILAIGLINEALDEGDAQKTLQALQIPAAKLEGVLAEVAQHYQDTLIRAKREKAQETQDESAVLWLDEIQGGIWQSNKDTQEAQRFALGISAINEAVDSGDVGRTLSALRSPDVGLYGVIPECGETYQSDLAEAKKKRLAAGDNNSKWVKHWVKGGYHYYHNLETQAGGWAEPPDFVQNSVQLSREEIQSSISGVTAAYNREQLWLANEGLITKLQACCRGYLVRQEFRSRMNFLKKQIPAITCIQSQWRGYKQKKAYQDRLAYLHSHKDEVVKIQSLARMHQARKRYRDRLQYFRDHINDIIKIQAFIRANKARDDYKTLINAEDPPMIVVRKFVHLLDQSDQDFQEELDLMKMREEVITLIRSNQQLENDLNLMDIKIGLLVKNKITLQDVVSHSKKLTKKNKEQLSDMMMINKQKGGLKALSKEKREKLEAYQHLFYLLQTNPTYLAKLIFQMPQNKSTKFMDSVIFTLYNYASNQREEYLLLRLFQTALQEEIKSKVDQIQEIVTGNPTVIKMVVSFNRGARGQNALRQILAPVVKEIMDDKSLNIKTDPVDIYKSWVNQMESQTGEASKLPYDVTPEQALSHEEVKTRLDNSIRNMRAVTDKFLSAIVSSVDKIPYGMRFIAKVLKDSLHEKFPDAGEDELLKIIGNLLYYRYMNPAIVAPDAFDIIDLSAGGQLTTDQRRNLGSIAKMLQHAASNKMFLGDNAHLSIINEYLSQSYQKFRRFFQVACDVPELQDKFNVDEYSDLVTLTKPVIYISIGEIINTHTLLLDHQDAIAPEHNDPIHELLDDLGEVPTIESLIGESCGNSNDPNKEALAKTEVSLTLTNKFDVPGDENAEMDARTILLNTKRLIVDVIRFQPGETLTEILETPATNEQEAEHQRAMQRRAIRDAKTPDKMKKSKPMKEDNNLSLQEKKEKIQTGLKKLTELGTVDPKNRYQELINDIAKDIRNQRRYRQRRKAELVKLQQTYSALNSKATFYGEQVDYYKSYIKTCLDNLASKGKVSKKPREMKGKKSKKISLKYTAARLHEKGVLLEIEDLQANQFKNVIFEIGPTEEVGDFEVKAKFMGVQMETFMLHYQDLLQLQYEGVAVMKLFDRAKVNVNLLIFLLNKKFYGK
Sequence of IQGAP1, endogenous, human NSCLC tissues (P46940 2-1657 limits assumed): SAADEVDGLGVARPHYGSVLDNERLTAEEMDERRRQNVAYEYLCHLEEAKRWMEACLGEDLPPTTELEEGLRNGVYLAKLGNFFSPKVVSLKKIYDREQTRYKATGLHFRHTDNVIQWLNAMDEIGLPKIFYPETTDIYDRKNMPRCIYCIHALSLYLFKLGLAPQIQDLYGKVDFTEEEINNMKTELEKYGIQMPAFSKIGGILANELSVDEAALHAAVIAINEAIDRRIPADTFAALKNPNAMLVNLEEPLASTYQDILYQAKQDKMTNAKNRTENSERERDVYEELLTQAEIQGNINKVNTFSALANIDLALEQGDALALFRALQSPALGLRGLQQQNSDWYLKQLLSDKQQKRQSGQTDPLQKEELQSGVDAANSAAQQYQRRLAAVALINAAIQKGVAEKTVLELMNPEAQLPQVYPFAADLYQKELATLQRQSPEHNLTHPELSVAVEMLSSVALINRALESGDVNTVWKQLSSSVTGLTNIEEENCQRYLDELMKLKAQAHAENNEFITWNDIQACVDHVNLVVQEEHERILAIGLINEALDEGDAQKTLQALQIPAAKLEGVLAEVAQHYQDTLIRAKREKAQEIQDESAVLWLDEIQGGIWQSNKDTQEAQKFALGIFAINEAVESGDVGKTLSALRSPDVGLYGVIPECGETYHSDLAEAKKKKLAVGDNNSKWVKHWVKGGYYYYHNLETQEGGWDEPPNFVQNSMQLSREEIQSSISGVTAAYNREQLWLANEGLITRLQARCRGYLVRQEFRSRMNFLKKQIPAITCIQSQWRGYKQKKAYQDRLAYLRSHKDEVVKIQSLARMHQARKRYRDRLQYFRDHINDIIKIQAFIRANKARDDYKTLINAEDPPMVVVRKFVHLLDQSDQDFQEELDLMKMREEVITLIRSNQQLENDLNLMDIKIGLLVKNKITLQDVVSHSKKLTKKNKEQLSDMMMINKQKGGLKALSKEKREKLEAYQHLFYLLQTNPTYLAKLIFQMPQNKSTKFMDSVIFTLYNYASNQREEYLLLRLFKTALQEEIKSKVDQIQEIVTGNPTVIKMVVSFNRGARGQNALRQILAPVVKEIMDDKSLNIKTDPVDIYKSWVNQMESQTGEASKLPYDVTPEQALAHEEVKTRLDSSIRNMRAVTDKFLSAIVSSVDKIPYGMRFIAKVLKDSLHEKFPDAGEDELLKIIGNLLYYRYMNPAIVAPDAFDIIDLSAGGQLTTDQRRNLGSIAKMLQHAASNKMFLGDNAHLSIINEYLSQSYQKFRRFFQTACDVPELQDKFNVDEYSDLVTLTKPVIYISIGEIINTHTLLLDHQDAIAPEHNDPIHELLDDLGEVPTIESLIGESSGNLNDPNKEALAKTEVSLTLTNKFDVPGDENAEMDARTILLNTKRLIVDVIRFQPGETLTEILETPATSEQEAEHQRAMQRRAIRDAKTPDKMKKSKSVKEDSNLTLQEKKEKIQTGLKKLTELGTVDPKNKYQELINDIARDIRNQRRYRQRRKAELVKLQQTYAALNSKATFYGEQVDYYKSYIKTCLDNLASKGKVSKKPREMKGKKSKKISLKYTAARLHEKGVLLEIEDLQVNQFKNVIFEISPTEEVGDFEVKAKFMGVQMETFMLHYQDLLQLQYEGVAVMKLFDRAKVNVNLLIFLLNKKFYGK

B1: GLK, endogenous, lung tissues of mice in the LLC/luc metastatic lung cancer model (enzyme)
chain: not shown
Consider B1, for which, in test [1], the binding result was “binds”.

B2: RORγt, endogenous, human peripheral blood T cells (SLE and RA patients) (receptor, UniProt P51449-2 1-497, looked up)
chain: MRTQIEVIPCKICGDKSSGIHYGVITCEGCKGFFRRSQRCNAAYSCTRQQNCPIDRTSRNRCQHCRLQKCLALGMSRDAVKFGRMSKKQRDSLHAEVQKQLQQRQQQQQEPVVKTPPAGAQGADTLTYTLGLPDGQLPLGSSPDLPEASACPPGLLKASGSGPSYSNNLAKAGLNGASCHLEYSPERGKAEGRESFYSTGSQLTPDRCGLRFEEHRHPGLGELGQGPDSYGSPSFRSTPEAPYASLTEIEHLVQSVCKSYRETCQLRLEDLLRQRSNIFSREEVTGYQRKSMWEMWERCAHHLTEAIQYVVEFAKRLSGFMELCQNDQIVLLKAGAMEVVLVRMCRAYNADNRTVFFEGKYGGMELFRALGCSELISSIFDFSHSLSALHFSEDEIALYTALVLINAHRPGLQEKRKVEQLQYNLELAFHHHLCKTHRQSILAKLPPKGKLRSLCSQHVERLQIFQHLHPIVVQAAFPPLYKELFSTETESPVGLSK
As for B2, the binding result in test [2] is on record as “binds”.

B3: GLK, endogenous, human NSCLC tissues (enzyme, UniProt Q8IVH8 1-894, looked up)
chain: T2 sequence (looked up)
As for B3, in test [3], the binding result is “binds”.

B4: AhR (transfected; construct of the ALPHA and FRET assays with PKCθ or GLK not stated) (receptor)
chain: MNSSSANITYASRKRRKPVQKTVKPIPAEGIKSNPSKRHRDRLNTELDRLASLLPFPQDVINKLDKLSVLRLSVSYLRAKSFFDVALKSSPTERNGGQDNCRAANFREGLNLQEGEFLLQALNGFVLVVTTDALVFYASSTIQDYLGFQQSDVIHQSVYELIHTEDRAEFQRQLHWALNPSQCTESGQGIEEATGLPQTVVCYNPDQIPPENSPLMERCFICRLRCLLDNSSGFLAMNFQGKLKYLHGQKKKGKDGSILPPQLALFAIATPLQPPSILEIRTKNFIFRTKHKLDFTPIGCDAKGRIVLGYTEAELCTRGSGYQFIHAADMLYCAESHIRMIKTGESGMIVFRLLTKNNRWTWVQSNARLLYKNGRPDYIIVTQRPLTDEEGTEHLRKRNTKLPFMFTTGEAVLYEATNPFPAIMDPLPLRTKNGTSGKDSATTSTLSKDSLNPSSLLAAMMQQDESIYLYPASSTSSTAPFENNFFNESMNECRNWQDNTAPMGNDTILKHEQIDQPQDVNSFAGGHPGLFQDSKNSDLYSIMKNLGIDFEDIRHMQNEKFFRNDFSGEVDFRDIDLTDEILTYVQDSLSKSPFIPSDYQQQQSLALNSSCMVQEHLHLEQQQQHHQKQVVVEPQQQLCQKMKHMQVNGMFENWNSNQFVPFNCPQQDPQQYNVFTDLHGISQEFPYKSEMDSMPYTQNFISCNQPVLPQHSKCTELDYPMGSFEPSPYPTTSSLEDFVTCLQLPENQKHGLNPQSAIITPQTCYAGAVSMYQCQPEPQHTHVGQMQYNPVLPGQQAFLNKFQNGVLNETYPAELNNINNTQTTTHLQPLHHPSEARPFPDLTSSGFL
With B4, the binding result in test [4] is given as “no binding”.
